Source: US20220218614A1, “IONIZABLE CATIONIC LIPIDS AND LIPID NANOPARTICLES, AND METHODS OF SYNTHESIS AND USE THEREOF” (Tidal Therapeutics, Inc., priority 2020, published 2022)

B1: V1: anti-CD7 Nanobody, SEQ ID NO: 80 (protein)
VHH: DVQLQESGGGLVQAGGSLRLSCAVSGYPYSSYCMGWFRQAPGKEREGVAAIDSDGRTRYADSVKGRFTISQDNAKNTLYLQMNRMKPEDTAMYYCAARFGPMGCVDLSTLSFGHWGQGTQVTVSITGGGCHHHHHHHH
B2: 12D2: anti-CD3 12D2 bDS Fab, SEQ ID NO: 84 and 85 (antibody)
heavy: EVKLVESGGGLVQPGRSLRLSCAASGFNFYAYWMGWVRQAPGKGLEWIGEIKKDGTTINYTPSLKDRFTISRDNAQNTLYLQMTKLGSEDTALYYCAREERDGYFDYWGQGVMVTVSSASTKGPSVFPLAPSSKSTSGGTAALGCLVKDYFPEPVTVSWNSGALTSGVHTCPAVLQSSGLYSLSSVVTVPSSSLGTQTYICNVNHKPSNTKVDKKVEPKSSDKTHTCGGHHHHHH
light: QFVLTQPNSVSTNLGSTVKLSCKRSTGNIGSNYVNWYQQHEGRSPTTMIYRDDKRPDGVPDRFSGSIDRSSNSALLTINNVQTEDEADYFCQSYSSGIVFGGGTKLTVLSQPKAAPSVTLFPPSSEELQANKATLVCLVSDFYPGAVTVAWKADGSPVKVGVETTKPSKQSNNKYAACSYLSLTPEQWKSHRSYSCRVTHEGSTVEKTVAPAESS
B3: OKT4: anti-CD4 humanized OKT4 bDS Fab, SEQ ID NO: 74 and 75 (antibody)
heavy: EVQLVESGGGLVQPGGSLRLSCAASGFTFSNYAMSWVRQAPGKRLEWVSAISDHSTNTYYPDSVKGRFTISRDNAKNTLYLQMNSLRAEDTAVYYCARKYGGDYDPFDYWGQGTLVTVSSASTKGPSVFPLAPSSKSTSGGTAALGCLVKDYFPEPVTVSWNSGALTSGVHTCPAVLQSSGLYSLSSVVTVPSSSLGTQTYICNVNHKPSNTKVDKKVEPKSSDKTHTCHHHHHH
light: DIQMTQSPSSLSASVGDRVTITCQASQDINNYIAWYQHKPGKGPKLLIHYTSTLQPGIPSRFSGSGSGRDYTLTISSLQPEDFATYYCLQYDNLLFTFGGGTKVEIKRTVAAPSVFIFPPSDEQLKSGTASVVCLLNNFYPREAKVQWKVDNALQSGNSQESVTEQDSKDSTYSLCSTLTLSKADYEKHKVYACEVTHQGLSSPVTKSFNRGES
B4: TRX2 ScFv: anti-CD8 TRX2 ScFv, SEQ ID NO: 98 (protein)
scFv: QVQLVESGGGVVQPGRSLRLSCAASGFTFSDFGMNWVRQAPGKGLEWVALIYYDGSNKFYADSVKGRFTISRDNSKNTLYLQMNSLRAEDTAVYYCAKPHYDGYYHFFDSWGQGTLVTVSSGGGGSGGGGSGGGGSGGGGSDIQMTQSPSSLSASVGDRVTITCKGSQDINNYLAWYQQKPGKAPKLLIYNTDILHTGVPSRFSGSGSGTDFTFTISSLQPEDIATYYCYQYNNGYTFGQGTKVEIKGGGSGGCGGHHHHHH
B5: A3: anti-CD56 A3 Fab bDS, SEQ ID NO: 30 and 31 (antibody)
heavy: EVQLVQSGAEVKKPGSSVKVSCKASGGTFTGYYMHWVRQAPGQGLEWMGWINPNSGGTNYAQKFQGRVTMTRDTSISTAYMELSRLRSDDTAVYYCARDLSSGYSGYFDYWGQGTLVTVSSASTKGPSVFPLAPSSKSTSGGTAALGCLVKDYFPEPVTVSWNSGALTSGVHTCPAVLQSSGLYSLSSVVTVPSSSLGTQTYICNVNHKPSNTKVDKKVEPKSSDKTHTCGGHHHHHH
light: DVVMTQSPLSLPVTPGEPASISCRSSQSLLHSNGYNFLDWYLQKPGQSPQLLIYLGSNRASGVPDRFSGSGSGTDFTLKISRVEADDVGVYYCMQSLQTPWTFGHGTKVEIKRTVAAPSVFIFPPSDEQLKSGTASVVCLLNNFYPREAKVQWKVDNALQSGNSQESVTEQDSKDSTYSLCSTLTLSKADYEKHKVYACEVTHQGLSSPVTKSFNRGES
B6: Lorvotuzumab: anti-CD56 Lorvotuzumab Fab bDS, SEQ ID NO: 32 and 33 (antibody)
heavy: QVQLVESGGGVVQPGRSLRLSCAASGFTFSSFGMHWVRQAPGKGLEWVAYISSGSFTIYYADSVKGRFTISRDNSKNTLYLQMNSLRAEDTAVYYCARMRKGYAMDYWGQGTLVTVSSASTKGPSVFPLAPSSKSTSGGTAALGCLVKDYFPEPVTVSWNSGALTSGVHTCPAVLQSSGLYSLSSVVTVPSSSLGTQTYICNVNHKPSNTKVDKKVEPKSSDKTHTCHHHHHH
light: DVVMTQSPLSLPVTLGQPASISCRSSQIIIHSDGNTYLEWFQQRPGQSPRRLIYKVSNRFSGVPDRFSGSGSGTDFTLKISRVEAEDVGVYYCFQGSHVPHTFGQGTKVEIKRTVAAPSVFIFPPSDEQLKSGTASVVCLLNNFYPREAKVQWKVDNALQSGNSQESVTEQDSKDSTYSLCSTLTLSKADYEKHKVYACEVTHQGLSSPVTKSFNRGES

What follows are molecules tested on human CD3 T cells (assay: Transfection of human CD3 T cells (CD8 and CD4 subsets) with Fab/Nb-targeted LNPs). Conditions: targeted Lipid 8 LNP (Lipid 5 in Example 43), GFP mRNA approximately 2.5 μg/mL, approximately 24 hr.
Format: cell-based
Protocol: LNPs were prepared using the mixing process described in Example 6, the buffer exchange process described below in Example 21. Using methods similar to Example 12, hSP34 and TRX2 Fab-lipid conjugates and a non-T cell specific anti-HER2 lipid-conjugate (Nellis D F, Ekstrom D L, Kirpotin D B, Zhu J, Andersson R, Broadt T L, Ouellette T F, Perkins S C, Roach J M, Drummond D C, Hong K, Marks J D, Park J W and Giardina S L (2005) Preclinical manufacture of an anti-HER2 scFv-PEG-DSPE, liposome-inserting conjugate. 1. Gram-scale production and purification. Biotechnol Prog 21:205-220) were post-inserted at various densities (SP34 0.25-17 g/mol; TRX2 0.25-9 g/mol; SP34+TRX2 0.25-9 g/mol each conjugate; anti-HER2 17 g/mol) into LNPs containing Lipid 8 and anti-CD20 targeting CART mRNA. Transfections were performed with human CD3 T cells at approximately 2.5 μg/mL mRNA for approximately 24 hr. For FACS analysis T cells were stained with M1 antibody (Sigma, F3040) that bind a N-terminus FLAG-tag variant sequence on the TTR-023 CAR (sequence provided below) in addition to staining for CD69 (Biolegend, 310930) and CD4 (Biolegend, 344648) to differentiate CD8 from CD4 cells.
LNPs were prepared using the mixing process described in Example 6, the buffer exchange process described in Example 21. Using methods similar to Example 12, hSP34, TRX2, and Ibalizumab Fab-lipid conjugates and a non-T cell specific anti-HER2 lipid-conjugate were post-inserted at various densities (specified in FIGS. 20A and 20B into LNPs containing Lipid 8 and Cy5/GFP mRNA. Transfections were performed with human CD3 T cells at approximately 2.5 μg/mL mRNA for approximately 24 hr and stained for CD69 (Biolegend, 310930) and CD4 (Biolegend, 344648) to differentiate CD8 from CD4 cells by FACS analysis.
LNPs were prepared using the mixing process described in Example 6, the buffer exchange process described in Example 21. Conjugates were generated using a method similar to that of Example 4 except 0.025, 0.1, 0.5 mM TCEP was used for hSP34 DS, 0.025, 0.2, 2 mM TCEP was used for hSP34-hlam NoDS (interchain disulfide knockout) for reduction prior to conjugation and the conjugation reactions were performed at 37 C for 2 hr. SDS-PAGE (FIGS. 65A, 65B) was performed using the manufacturers recommended conditions with 1 ug of protein (Thermo, 4-12% Bis-Tris MiniGel). RP-HPLC (FIGS. 65C, 65D) was performed using an Agilent 300 SB-C8 at 0.5 mL/min with a column temperature of 60° C., Mobile Phase A: Water with 0.1% TFA, Mobile Phase B: Acetonitrile with 0.1% TFA, Gradient % B: 0 min 5%, 1 min 5%, 6.5 min 95%, 8 min 95% injecting 10 ul with a target of 1-25 ug of protein. Using methods similar to Example 12, ant-CD3 hSP34 (with and without natural interchain disulfide, DS (with interchain disulfide) vs. NoDS (without interchain disulfide), see sequences below) PEG-lipid conjugated Fabs were post-inserted at various Fab densities (6, 12, 17 g Fab/mol total lipid) into LNPs containing Lipid 8 and Cy5/GFP mRNA. Transfections were performed with human CD3 T cells at approximately 2.5 μg/mL mRNA for approximately 24 hr. Levels of transfection of CD3 T cells was measured by flow cytometry.
LNPs were prepared using the mixing process described in Example 6, the buffer exchange process described in Example 21. Conjugates were generated using a method similar to that of Example 4 except 0.1 mM TCEP was used for reduction prior to conjugation and the conjugation reaction was performed at 37 C for 2 hr. […]

| Molecule | % GFP transfection and GFP expression (MFI) of CD8 and CD4 T cells, in words |
| --- | --- |
| B1 | 3.4K PEG mediated higher transfection and expression than the 5K PEG |
| B2 | can efficiently transfect both CD8 and CD4 T cell subsets |
| B3 | highly specific LNP transfection and protein translation of CD4+ T cells versus CD8+ T cells |
| B4 | slightly lower % transfection (FIG. 82A) and GFP expression levels (FIG. 82B) in the CD8 T cell subset relative to the anti-CD8 TRX2 NoDS Fab |

These molecules were tested on primary human NK cells (assay: LNP transfection of co-cultured human T cells and NK cells: NK cells). Conditions: Lipid 8 LNP, 2.5 ug/mL mRNA, 24 hours.
Format: cell-based
Protocol: CD3-depleted PBMCs were purified using magnetic-based CD3 positive selection and retaining of the negative fraction. 20 million CD3 depleted PBMCs were added to 1 well of a 6 well GREX plate in media containing 10 ng/mL IL-15 for 7 days. On day 7, each well was split in 2 and cells were cultured further in media containing 10 ng/mL IL-15 for an additional 7 days. On day 14, NK cells were concentrated to 1 million cells/mL in preparation for co-transfection with primary human T cells.
LNPs were prepared using the mixing process described in Example 6, the buffer exchange process described in Example 25. The LNPs were formulated using eGFP encoding mRNA (TriLink Biotechnologies, California, US), Lipid 8 as the ionizable lipid, and labeled with 0.01 mol % DiIC18(5)-DS (Invitrogen, Massachusetts, US). Fab-lipid conjugates generated from methods described in Example 4 while generation of Nb-conjugated differed in using 1:1:4 Nb:DSPE-SKPEG-maileimide:DSPE-2KPEG-OCH3 and a 50 kD UF membrane (Millipore Corp, Billerica, Mass. USA) for separation of Nb-conjugate from free Nb. Using methods similar to Example 12, conjugated Fabs and conjugated Nb were post-inserted at various densities (Table 41) into LNPs containing Lipid 8 and GFP mRNA with DiI dye. […]. […]
24 hours after LNP transfection, cell culture media was aspirated from T cell and NK cell co-cultures after centrifugation. […] Following acquisition by flow cytometry, T cells and NK cells were analyzed independently using FlowJo (flow cytometry analysis software). In either CD3+ cells (T cells) or CD56+ cells (NK cells), the frequency of GFP positive events relative to GFP negative events was calculated (FIG. 64A). Additionally, the overall fluorescence of GFP was quantified by assessment of mean fluorescence intensity (MFI, FIG. 64B). […] Together, these metrics enabled quantification of LNP transfection efficiency of all targeted LNPs tested in primary human T cell and NK cell co-cultures.

| Molecule | transfection of NK cells in T/NK co-culture (% GFP, GFP MFI, DiI), in words |
| --- | --- |
| B5 | highly specific transfection of NK cells |
| B6 | highly specific transfection of NK cells |
